Measured values from publication PMC6336196 (Nature, 2018).
Like-named read-outs stand apart in the source and are kept apart here.

B1: Cyphellophora europaea mitochondrial calcium uniporter (natural protein, UniProt W2SDE2 1-346, looked up)
chain: MTKGKLLTTPSRLLKLVLPLSTVDHNTDRKDVAPLALLVHPQQPLSYLERLIQAELPPPDPQDSKSTTRSVTFRAMEAKDDEIKPRKKADTEGGGGSDGSVQSYSGAGREGEGKDEGEFVRWSPSTEIGDFIRDAARAKEFEVEIEGSPGVIKVAVPSFNDRTYYLRQRLRRTSRKISKLAAIKEECDKAAHRGAQRIALAGCGGLIGYWYIVYRLTFETDLGWDVMEPVTYLVGLSTLIGGYMWFLWHNREVSYRSALNITVSARQNKLYQAKGFSLQDWEGYLEEANAMRREIKAVASEYDVDWNETQDEGGDEKVTKALRDERKNNNGTKNKSKEGEEDDEDD
B2: Danio rerio (zebrafish) mitochondrial calcium uniporter (natural protein, zebrafish (Danio rerio), UniProt Q08BI9 35-376, looked up)
chain: QGTKTEALSMSLGGHQTVRRAHGLRTGGRCALFCHPSATLTAQGWKGSPSWQVQRLLCSPAAEDVSVVYQNGLPVISVRLPSRRERCQFTLKPLSDTVGVFLQQLQAEDRGIDRVTIYSADGARIASSTGIDILLMDNFKLVINDTSYLVQPPRRDLLPHEDGERLNDVKILVQQLYTTLRIEEHQLNKERELIGRLEDLNSQLQPLEKVKEELSKKAERRTTWVLWGGMAYMATQFGILARLTWWEYSWDIMEPVTYFITYGTAMAMYAYFVLTRQEYLYPDARDRQYLLFFHRGAKRTRFDIEKYNKLKDAIAEAELDLKRLRDPLQLNLPIQQIDTSKD

Tests used:
cryo-EM structure [1] = target: the molecule itself; test: cryo-EM structure
cryo-EM structure [2] = target: the molecule itself; test: cryo-EM structure; remark: listed apart in the source

Protein	stoichiometry N (cryo-EM structure [1])	stoichiometry N (cryo-EM structure [2])
B1	4	–
B2	–	4
